The values below come from patent EP3919077A1.

The test addresses human FcγRIIB (CD32B) on peripheral B cells (human) (UniProt P31994). Nature of the test: in vivo receptor occupancy on peripheral B cells of human subjects after infusion of 100 mg BI-1206 (preliminary clinical data).
UniProt P31994, sequence (P31994 43-310): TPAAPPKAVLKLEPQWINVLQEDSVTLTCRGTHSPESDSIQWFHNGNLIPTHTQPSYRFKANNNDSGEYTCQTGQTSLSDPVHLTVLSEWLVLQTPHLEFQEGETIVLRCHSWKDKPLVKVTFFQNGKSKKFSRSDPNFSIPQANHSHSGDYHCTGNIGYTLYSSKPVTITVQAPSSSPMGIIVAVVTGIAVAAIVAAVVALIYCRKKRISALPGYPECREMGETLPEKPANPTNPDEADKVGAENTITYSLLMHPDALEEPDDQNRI

The substance BI-1206 (antibody) came in with a receptor occupancy of 100%.
